In US20200399375A1 (SUZHOU SUNCADIA BIOPHARMACEUTICALS, published 2020):

What was measured:
[1] = target: T1, PD-L1 Fc fusion protein: PD-L1 (ECD)-Fc (human IgG1) (human); experiment: blocking ELISA, PD-L1(ECD)-Fc coated, competitor biotin-PD-1-Fc
T1 construct: Coated on the plate in Tests 1 to 3; also called huPD-L1-Fc; VKL-PD-L1(ECD)-Fc(human IgG1)
Protocol: The dilution of biotin (Dojindo Chemical, LK03: 3 samples) and avidin (Sigma, S2438-250UG) was 6% BSA (diluted with PBS containing 0.1% Tween20), and PBS was used as coating solution. Microtitration plates were directly coated with 1 μg/ml ([…]) of PD-L1(ECD)-Fc(SEQ ID NO: 4) and incubated at 4° C. overnight. The plate was washed three times and was blocked for 2h at 37° C. with 3% BSA(diluted with PBS containing 0.1% Tween20). The plate was washed three times and 50 μl/well of cell supernatant was added to each well. Then 50 μl/well of bio-PD-1-Fc (biotin-labeled PD-1-Fc, SEQ ID NO: 5, 2 μg/ml, PD-1-FC was labeled according to the method of Dojindo Chemical Kits Biotin Labeling Kit-NH2, LK03: 3 samples) was added to each well, well-mixed by vortex, and incubated at 37° C. for 1 h. The plates were washed 6 times, followed by addition of 50 μl/well Streptavidin-Peroxidase Polymer (S2438-250UG, Sigma, which was diluted at a ratio of 1:400), and incubated on shaker for 50 min at room temperature. The plate was washed 6 times, and then I00 μl/well of TMB was added, and incubated for 5-10 min at 37° C. Then the reaction was terminated with addition of 100 μl/well of 1M H2SO₄. The absorbance value was read on microplate reader (BMG Labtech, NOVOStar) at 450 nm, and the IC₅₀ value for blocking the binding of PD-1 antibody to ligand PD-L1 was calculated.

[2] = target: T2, cynomolgus PD-L1 antigen (Cyno PD-L-his, Sino 90251-C08H-100) (cynomolgus, UniProt G7PSE7 19-239); experiment: Biacore X100, antibody captured by anti-human antibody on CM5, antigen in flow, 1:1 Langmuir
T2 construct: Bought protein; also called CynoPD-L1-his; not shown: His tag

[3] = target: T3, human PD-L1 antigen (huPD-L1-his, Sino biological, 10084-H08H-200) (human, UniProt Q9NZQ7 19-239); experiment: as above
T3 construct: Bought protein; also called human PD-L1-his; not shown: His tag

[4] = target: T1, PD-L1 Fc fusion protein: PD-L1 (ECD)-Fc …; experiment: blocking ELISA, PD-L1(ECD)-Fc coated, competitor biotin-human B7.1
[5] = target: T1, PD-L1 Fc fusion protein: PD-L1 (ECD)-Fc …; experiment: hybridoma screening, binding ELISA on coated PD-L1(ECD)-Fc (Test 1)
Protocol: On day 10-11 after fusion, an ELISA assay was performed on PD-L1 binding according to the density of the growing cells (see Test 1). For the positive cells detected in the ELISA assay (Test 1), blockade in PD-L1/PD-1 binding was detected via ELISA analysis (see Test 2). Medium in the positive wells was changed and the positive cells were expanded to a 24-well plate depending on cell density. After re-testing, the cells transferred into the 24-well plate were used for breed conservation and first sub-cloning. The positive cells during the first sub-clone screening (see Test 1) were used for breed conservation and subjected to a second sub-cloning. The positive cells during the second sub-cloning were (see Test 1) used for breed conservation and protein expression. Hybridoma cells having blocking effect on PD-L1 and PD-1 binding (see Test 2) were obtained by multiple cell fusions.
Microtitration plates were directly coated with 1 μg/ml ([…]) of PD-L1(ECD)-Fc(SEQ ID NO: 4) and incubated at 4° C. overnight. Then the plates were blocked with 150 μl/well of PBS containing 5% Skim Milk(BD, 232100) and incubated at 4° C. overnight. […] The reaction was stopped by the addition of 50 μl/well of 1M H₂SO₄ to each well and the OD value was read on an ELISA microplate reader (BMG Labtech, NOVOStar) at a wavelength of 450 nm.

[6] = target: T3, human PD-L1 antigen (huPD-L1-his, Sino …); experiment: BIACORE (Test 4)
Text: The anti-human capture antibody was covalently linked to the CM5 biochip (GE, BR-1000-12) according to the method described in the anti-human trapping kit (GE, BR-1008-39) instructions for affinity capturing the PD-L1 antibody of the present invention. Then, a series of concentrations of human PD-L1 antigen (Sino biological, 0084-H08H-200) were flowed through the surface of the biochip, and the reaction signal was detected in real time using a Biacore instrument (GE, BiacoreX100) to obtain the association and dissociation curves. Finally, the affinity values were obtained by fitting. After each cycle of dissociation was finished in the experiment, the biochip was washed and regenerated with regeneration solution in the anti-human capture kit (GE). The data obtained was analyzed by GE's BIA evaluation software using a 1:1(Langmuir) binding model. Ka (kon), kd (koff) and KD values were determined by the assay. The affinity of hybridoma antibodies and humanized antibodies has been summarized in other examples.

[7] = target: T3, human PD-L1 antigen (huPD-L1-his, Sino …); experiment: affinity measurement; method and antigen not named in the sentence (PD-L1)

| IC50 [1] | Kd [2] | koff [2] | kon [2] | Kd [3] | koff [3] | kon [3] | IC50 [4] | Binder | further results |
| --- | --- | --- | --- | --- | --- | --- | --- | --- | --- |
| 0.174 µg/mL | 172 pM | 0.000167 s⁻¹ | 974000 M⁻¹ s⁻¹ | 170 pM | 0.000162 s⁻¹ | 952000 M⁻¹ s⁻¹ | 0.113 µg/mL | HRP00049: 9-2(H2/L10) IgG4 (AA)(S228P) (antibody, V domains shown, kappa light chain; also called humanized antibody 9-2) VH: QVQLQESGPGLVKPSQTLSLTCTVSGGSISNDYWTWIRQHPGKGLEYIGYISYTGSTYYNPSLKSRVTISRDTSKNQFSLKLSSVTAADTAVYYCARSGGWLAPFDYWGRGTLVTVSS VL: DIVMTQSPDSLAVSLGERATINCKSSQSLFYHSNQKHSLAWYQQKPGQPPKLLIYGASTRESGVPDRFSGSGSGTDFTLTISSLQAEDVAVYYCQQYYGYPYTFGGGTKVEIKR | – |
| 0.114 µg/mL | 57.9 pM | 0.000106 s⁻¹ | 1.84e+06 M⁻¹ s⁻¹ | 57 pM | 0.000101 s⁻¹ | 1.77e+06 M⁻¹ s⁻¹ | 0.0696 µg/mL | HRP00052: 24D5(GF) IgG4 (AA) (S228P) (antibody, V domains shown, kappa light chain; also called 24D5 29H1 GF; humanized antibody 24D5) VH: QVQLVQSGAEVKKPGASVKVSCKASGYTFTSYWMHWVRQAPGQGLEWMGRIGPNSGFTSYNEKFKNRVTMTRDTSTSTVYMELSSLRSEDTAVYYCARGGSSYDYFDYWGQGTTVTVSS VL: DIVLTQSPASLAVSPGQRATITCRASESVSIHGTHLMHWYQQKPGQPPKLLIYAASNLESGVPARFSGSGSGTDFTLTINPVEAEDTANYYCQQSFEDPLTFGQGTKLEIKR | – |
| – | – | – | – | – | – | – | – | murine antibody of hybridoma clone 9-2 (antibody, V domains shown, Mouse hybridoma antibody; also called hybridoma antibody 9-2; murine antibody 9-2) VH: EVQLQESGPGLAKPSQTLSLTCSVAGYSITNDYWNWIRKFPGNKLEYMGYISYTGSTYYNPSLKSRLSITRDTSKNQYYLQLNSVTAEDTAIYYCARSGGWLAPFDYWGRGTTLTVSS VL: DIVMSQSPSSLVVSVGEKVIMSCKSSQSLFYRSNQKNSLAWYQQKPGQSPKLLIYGASTRESGVPDRFTGSGSGTDFTVTISSVKAEDLAVYYCQQYYGYPYTFGGGTKLEIK | binding result [5]: binds |
| – | – | – | – | – | – | – | – | 9-2 chimeric antibody (antibody, V domains shown, also called the chimeric antibody (of 9-2)) VH: EVQLQESGPGLAKPSQTLSLTCSVAGYSITNDYWNWIRKFPGNKLEYMGYISYTGSTYYNPSLKSRLSITRDTSKNQYYLQLNSVTAEDTAIYYCARSGGWLAPFDYWGRGTTLTVSS VL: DIVMSQSPSSLVVSVGEKVIMSCKSSQSLFYRSNQKNSLAWYQQKPGQSPKLLIYGASTRESGVPDRFTGSGSGTDFTVTISSVKAEDLAVYYCQQYYGYPYTFGGGTKLEIK | binding result [6]: binds |
| – | – | – | – | – | – | – | – | chimeric antibody of 24D5 with a back-mutation from serine to cysteine at position 96 (antibody, V domains shown, it is put on the VH because the printed VH has S at 96 and C at 22 (the disulfide partner named); also called 24D5 chimeric S96C) VH: QVQLQQPGAELVKPGASVKLSCKASGYTFTSYWMHWVQQRPGQGLEWIGRIHPNSGGTSYNEKFKNRATLTVDKSSSTAYMQFSSLTSEDSAVYYCARGGSSYDYFDYWGQGTTLTVSS VL: DIVLTQSPASLAVSLGQRATISCRASESVSIHGTHLMHWYQQKPGQPPKLLIYAASNLESGVPARFSGSGSETDFTLNIHPVEEEDATTYFCQQSFEDPLTFGAGTKLELK | binding result [7]: binds |
